Measurements from patent US20070020688A1, “Measurement method using biosensor” (FUJI PHOTO FILM CO., LTD., priority 2005, published 2007).

How the values were obtained:
trypsin [1] = target: T1, trypsin (Bos taurus, UniProt P00760); experiment: Compound binding amount on trypsin-immobilized hydrogel-coated chip by surface plasmon resonance; conditions: for Compound binding amount (RU): compound 0.01 mM, 3 minutes
T1 construct: purchased Worthington
T1 sequence (P00760 24-246): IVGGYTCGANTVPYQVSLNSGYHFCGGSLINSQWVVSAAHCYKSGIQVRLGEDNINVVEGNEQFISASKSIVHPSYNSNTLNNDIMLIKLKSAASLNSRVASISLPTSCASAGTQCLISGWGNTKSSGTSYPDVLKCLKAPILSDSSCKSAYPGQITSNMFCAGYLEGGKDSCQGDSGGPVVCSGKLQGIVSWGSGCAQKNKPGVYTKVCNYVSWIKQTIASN
Method: Trypsin (manufactured by Worthington) was immobilized on the hydrogel-coated measurement chip produced in (2) above. Measurement was carried out using the surface plasmon resonance measurement device described in (1) above.
A mixed solution of 1-ethyl-2,3-dimethylaminopropylcarbodiimide (400 mM) and N-hydroxysuccinimide (100 mM) was added to a hydrogel-coated chip, followed by leaving at rest for 20 minutes. Thereafter, the resultant product was washed with a 10 mM phosphate buffer. Subsequently, the aforementioned trypsin solution was added thereto, followed by leaving at rest for the period of time shown in Table 1. Thereafter, the resultant product was subjected to a primary washing with a 10 mM phosphate buffer, and then subjected to a secondary washing with the washing solution shown in Table 1. Thereafter, the resultant product was further washed with a 10 mM phosphate buffer. It is to be noted that it has been known that if such a secondary washing is carried out with 10 mM NaOH, non-specifically adsorbed proteins are washed out, and a baseline drift thereby becomes stable during interaction measurement.
By the aforementioned operations, trypsin was immobilized on the surface of the measurement chip via a covalent bond. The amount by which resonance signals (RU value) obtained before the addition of trypsin and after washing had changed was defined as the immobilized amount of trypsin (RU value).
The measurement chip was washed with a 10 mM phosphate buffer, and it was then equipped in the surface plasmon resonance device of the present example. Thereafter, leupeptin (0.01 mM; phosphate buffer pH 7.4), the following kinase inhibitor, and an amphipathic compound (0.01 mM; phosphate buffer pH 7.4) were added thereto, followed by leaving at rest for 3 minutes. The amount by which resonance signals (RU value) had changed was defined as the binding amount of the compound.

trypsin [2] = target: T1, trypsin; experiment: Enzyme activity of immobilized trypsin, fluorescence of decomposed Bz-Arg-MCA substrate; type: biochemical; conditions: for Enzyme activity (fluorescence intensity): 0.1 mM Bz-Arg-MCA, 120 minutes
Method: Using the chip on which trypsin had been immobilized as described in (1) above, the enzyme activity of trypsin was measured. […] Specifically, a substrate specific to trypsin (benzoyl-L-arginine-4-methylcoumarin-7-amide (hereinafter referred to as Bz-Arg-MCA); Peptide Institute, Inc.) was allowed to react with trypsin, and fluorescence in the decomposed product was measured.
The 10 mM phosphate buffer contained in the measurement chip was removed, and 0.1 mM Bz-Arg-MCA was then added thereto. The reaction was then carried out for 120 minutes.
Fluorescence measurement was carried out regarding fluorescence for each of the aforementioned reaction times, using the BMGLabTechnologies FLUOstar measurement device (excitation: 380 nm; and emission: 460 nm).

CC(=O)N[C@@H](CC(C)C)C(=O)N[C@@H](CC(C)C)C(=O)N[C@H](C=O)CCCNC(=N)N [Leupeptin, leupeptin]
Compound binding amount (RU) (trypsin [1]; Experiment No. 1: trypsin immobilized in phosphate buffer (pH 7.4), 10 mg/ml, 1 hr, secondary washing phosphate buffer (pH 7.4)): 25 RU | Compound binding amount (RU) (trypsin [1]; Experiment No. 2: trypsin immobilized in phosphate buffer (pH 7.4), 2 mg/ml, 1 hr, secondary washing phosphate buffer (pH 7.4)): 19 RU | Compound binding amount (RU) (trypsin [1]; Experiment No. 3: trypsin immobilized in phosphate buffer (pH 7.4), 2 mg/ml, 1 hr, secondary washing 10 mM NaOH): 8 RU | Compound binding amount (RU) (trypsin [1]; Experiment No. 4: trypsin immobilized in acetate buffer (pH 5.0), 0.1 mg/ml, 0.2 hr, secondary washing phosphate buffer (pH 7.4)): 16 RU | Binding to the surface, in words (trypsin [1]; surface of experiment No. 2): binds to the surface

Trypsin
Activity value (enzyme activity/immobilized amount) (trypsin [2]; Experiment No. 1): 0.055 | Enzyme activity (fluorescence intensity) (trypsin [2]; Experiment No. 1: phosphate buffer (pH 7.4), 10 mg/ml, 1 hr, washing phosphate buffer (pH 7.4)): 230 | Activity value (enzyme activity/immobilized amount) (trypsin [2]; Experiment No. 2): 0.238 | Enzyme activity (fluorescence intensity) (trypsin [2]; Experiment No. 2: phosphate buffer (pH 7.4), 2 mg/ml, 1 hr, washing phosphate buffer (pH 7.4)): 615 | Activity value (enzyme activity/immobilized amount) (trypsin [2]; Experiment No. 3): 0.160 | Enzyme activity (fluorescence intensity) (trypsin [2]; Experiment No. 3: phosphate buffer (pH 7.4), 2 mg/ml, 1 hr, washing 10 mM NaOH): 370 | Activity value (enzyme activity/immobilized amount) (trypsin [2]; Experiment No. 4): 0.008 | Enzyme activity (fluorescence intensity) (trypsin [2]; Experiment No. 4: acetate buffer (pH 5.0), 0.1 mg/ml, 0.2 hr, washing phosphate buffer (pH 7.4)): 40
